Target: T1, E. coli RecB (E. coli, UniProt P08394 1-1180)
T1 sequence (looked up): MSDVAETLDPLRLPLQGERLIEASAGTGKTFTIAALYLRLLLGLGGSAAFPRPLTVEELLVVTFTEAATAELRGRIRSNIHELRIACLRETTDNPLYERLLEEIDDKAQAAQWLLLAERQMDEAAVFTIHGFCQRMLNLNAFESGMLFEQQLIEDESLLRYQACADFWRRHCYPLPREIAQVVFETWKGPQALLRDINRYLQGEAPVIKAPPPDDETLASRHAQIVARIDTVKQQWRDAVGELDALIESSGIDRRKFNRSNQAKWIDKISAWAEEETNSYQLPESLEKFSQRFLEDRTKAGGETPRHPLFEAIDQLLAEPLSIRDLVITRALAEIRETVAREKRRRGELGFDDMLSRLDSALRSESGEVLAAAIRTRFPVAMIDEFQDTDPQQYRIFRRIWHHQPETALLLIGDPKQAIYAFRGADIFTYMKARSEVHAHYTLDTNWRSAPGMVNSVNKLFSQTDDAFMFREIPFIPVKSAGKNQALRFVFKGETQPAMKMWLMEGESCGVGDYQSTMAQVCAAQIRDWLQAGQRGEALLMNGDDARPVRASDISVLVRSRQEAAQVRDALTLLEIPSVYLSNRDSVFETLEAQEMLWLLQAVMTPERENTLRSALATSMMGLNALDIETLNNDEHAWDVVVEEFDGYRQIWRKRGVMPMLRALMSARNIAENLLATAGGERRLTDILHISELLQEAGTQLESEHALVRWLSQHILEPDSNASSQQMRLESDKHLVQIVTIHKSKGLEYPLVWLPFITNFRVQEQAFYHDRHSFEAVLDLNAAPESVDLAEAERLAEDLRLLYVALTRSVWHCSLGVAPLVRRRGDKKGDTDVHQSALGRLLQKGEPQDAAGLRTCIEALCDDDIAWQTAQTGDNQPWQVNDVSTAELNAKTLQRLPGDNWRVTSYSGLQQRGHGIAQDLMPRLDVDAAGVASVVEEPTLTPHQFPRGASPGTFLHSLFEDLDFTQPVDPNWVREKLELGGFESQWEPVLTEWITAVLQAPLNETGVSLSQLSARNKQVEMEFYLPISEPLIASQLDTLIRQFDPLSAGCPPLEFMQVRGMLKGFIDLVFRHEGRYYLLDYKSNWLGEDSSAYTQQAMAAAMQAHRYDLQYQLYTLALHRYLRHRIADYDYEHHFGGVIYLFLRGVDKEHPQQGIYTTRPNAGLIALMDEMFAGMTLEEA
Test: reconstitution of the complex by mixing

binding result: binds
B1: E. coli RecC (natural protein, UniProt P07648 1-1122, looked up)
chain: MLRVYHSNRLDVLEALMEFIVERERLDDPFEPEMILVQSTGMAQWLQMTLSQKFGIAANIDFPLPASFIWDMFVRVLPEIPKESAFNKQSMSWKLMTLLPQLLEREDFTLLRHYLTDDSDKRKLFQLSSKAADLFDQYLVYRPDWLAQWETGHLVEGLGEAQAWQAPLWKALVEYTHQLGQPRWHRANLYQRFIETLESATTCPPGLPSRVFICGISALPPVYLQALQALGKHIEIHLLFTNPCRYYWGDIKDPAYLAKLLTRQRRHSFEDRELPLFRDSENAGQLFNSDGEQDVGNPLLASWGKLGRDYIYLLSDLESSQELDAFVDVTPDNLLHNIQSDILELENRAVAGVNIEEFSRSDNKRPLDPLDSSITFHVCHSPQREVEVLHDRLLAMLEEDPTLTPRDIIVMVADIDSYSPFIQAVFGSAPADRYLPYAISDRRARQSHPVLEAFISLLSLPDSRFVSEDVLALLDVPVLAARFDITEEGLRYLRQWVNESGIRWGIDDDNVRELELPATGQHTWRFGLTRMLLGYAMESAQGEWQSVLPYDESSGLIAELVGHLASLLMQLNIWRRGLAQERPLEEWLPVCRDMLNAFFLPDAETEAAMTLIEQQWQAIIAEGLGAQYGDAVPLSLLRDELAQRLDQERISQRFLAGPVNICTLMPMRSIPFKVVCLLGMNDGVYPRQLAPLGFDLMSQKPKRGDRSRRDDDRYLFLEALISAQQKLYISYIGRSIQDNSERFPSVLVQELIDYIGQSHYLPGDEALNCDESEARVKAHLTCLHTRMPFDPQNYQPGERQSYAREWLPAASQAGKAHSEFVQPLPFTLPETVPLETLQRFWAHPVRAFFQMRLQVNFRTEDSEIPDTEPFILEGLSRYQINQQLLNALVEQDDAERLFRRFRAAGDLPYGAFGEIFWETQCQEMQQLADRVIACRQPGQSMEIDLACNGVQITGWLPQVQPDGLLRWRPSLLSVAQGMQLWLEHLVYCASGGNGESRLFLRKDGEWRFPPLAAEQALHYLSQLIEGYREGMSAPLLVLPESGGAWLKTCYDAQNDAMLDDDSTLQKARTKFLQAYEGNMMVRGEGDDIWYQRLWRQLTPETMEAIVEQSQRFLLPLFRFNQS

Reference: publication PMC3174691 (Journal of molecular biology, 2008)
